In the RNAGym collection of RNA variant scans (doi:10.1073/pnas.2313332121):
This sample holds only a part of the variants without activity.

B1: TPR 5TU (parent)
chain: GGAUCUUCUCGAUCUAACAAAAAAGACAAAUCUGCCACAAAGCUUGAGAGCAUCUUCGGAUGCAGAGGCGGCAGCCUUCGGUGGCGCGAUAGCGCCAACGUUCUCAACUAUGACACGCAAAACGCGUGCUCCGUUGAAUGGAGUUUAUCAUG

Variants of: B1
Assay: polymerase ribozyme fitness, log enrichment relative to wild type (log ratio); higher = more active; in vitro selection for triplet polymerase activity
Procedure, shortened: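 Mutant libraries of both subunits of a heterodimeric triplet polymerase ribozyme were PCR-built, transcribed, and selected once in triplicate, with frozen incubation at −7 °C and capture of gel-excised extended constructs on streptavidin beads before RT-PCR. Illumina sequencing of input and output libraries was filtered to genotypes with ≥10 input reads and ≥1 read per output. Fitness is the logarithm of genotype enrichment over wild-type enrichment, using inverse-variance-weighted replicate averages. The logarithm is base 2.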

| Variant | polymerase ribozyme fitness (log ratio) |
| --- | --- |
| A41C G94A U104G A113C C116G | ≤ -4.2 |
| A40U U61G C69U | -1.67 |
| A41C U55A G58C A98U | -0.108 |
| A41G C54G G84A U148C | -3.53 |
| G42A G59A A66C A73U U78A C87G U146G C149A | ≤ -4.2 |
| A41C C57A C96U U134C | -0.224 |
| A41G G94U C114U A150G | -3.98 |
| A41C C96A | -0.56 |
| A41U U53A G74C U82C | ≤ -4.2 |
| A41C C79U G94U G100A C125A | -2.23 |
| A40U U55G C95U C105G C116G | -3.94 |
| A41C U55A G94A G112U U134A | ≤ -4.2 |
| A41U A89U A91C | -3.97 |
| A41G C54G U104A A119G G126U | -1.16 |
| A41C U53A U56A A66C C79G G84U | ≤ -4.2 |
| A41G A49C U82G U90G G133A | ≤ -4.2 |
| A41C C85U A122U G126C | -0.655 |
| A41U C54G G88C U130A | ≤ -4.2 |
| A41C A52G G58A | -1.39 |
| A41C A60U A91G U134C | -4.11 |
| A41C C87G | ≤ -4.2 |
| A41C C87U | -1.35 |
| A41C U90G A113C | ≤ -4.2 |
| A41U A91U G140A | ≤ -4.2 |

| Variant | polymerase ribozyme fitness (log ratio) |
| --- | --- |
| A41C U56A C85A G117A G140A | ≤ -4.2 |
| A41G G48A C87A U148C | ≤ -4.2 |
| A41U C54U C63U U82A C95G A115U | ≤ -4.2 |
| A41C A106G G133C A147U | -1.68 |
| G42A C116G A150U | ≤ -4.2 |
| A41C C43U C63U G88U | ≤ -4.2 |
| A41U G50C C76U C93G A138G A150U | ≤ -4.2 |
| A41C U56A C63A G83A | -0.629 |
| A41U C76U G88C U130C | ≤ -4.2 |
| A41C A52C G70A C118U | ≤ -4.2 |
| A40U G86A | -0.914 |
| A41U A73U | -1.65 |
| A41C G58C U82G A106G A137G | -2.57 |
| A41U C63G C85A G152U | ≤ -4.2 |
| A41G U53C U55A U82G U127G | -4.02 |
| A41U U53A G88A U101G C108U G128C A142C | ≤ -4.2 |
| A41C G46U C76A U102A C131G | ≤ -4.2 |
| A41G A60G A97U | -0.347 |
| A41U G50A | -2.68 |
| A41C C57A C87U C114G | -3.91 |
| A41C C72G A106G G143C U151G | ≤ -4.2 |
| A41G G50C C125U A142G | -3.92 |
| A41C U61A C76A A91U C99A A110U A150C | ≤ -4.2 |
| G42A A49C C69G A137U | ≤ -4.2 |

| Variant | polymerase ribozyme fitness (log ratio) |
| --- | --- |
| A41G A52G C87U U144G U148G | -3.95 |
| A40U G86A G141A | -1.06 |
| A41C C114U U127C | -3.96 |
| A41U C54A G59A C85G | -3.6 |
| A41U U56A C85A | -2.38 |
| A41C C54U A110G | -2.74 |
| A41U G80C G88U C103A A107G | ≤ -4.2 |
| A41C U56A C87U | -1.41 |
| A41C C54A U82G G94U | -3.5 |
| A41C A97G A121G | -0.295 |
| G42A C93A U102G U135A | ≤ -4.2 |
| A41G U44A U61C C75U A142C | ≤ -4.2 |
| A41G G58C U61C U82G C87G U104G C118G G141U | ≤ -4.2 |
| A41C G50A G86U A137C C149A | ≤ -4.2 |
| A41G G88U C131G | ≤ -4.2 |
| A41C A52G G62C C95G C131A A142U C149A | ≤ -4.2 |
| A41U G68C A91U U102C | ≤ -4.2 |
| A41C U44A G84A U146G | ≤ -4.2 |
| A41G A98U C103G A138C | ≤ -4.2 |
| A41G C93A G124U | -1.5 |
| A41U C57U G80A | -1.12 |
| A41C C87U A120C | -1.53 |
| A41C G58A G68A U104C A113C A147C | ≤ -4.2 |
| A41C C57A C96U | -0.533 |

| Variant | polymerase ribozyme fitness (log ratio) |
| --- | --- |
| A40U G84A | -0.341 |
| A41G C51U A89C C95A U135C U148A | ≤ -4.2 |
| A41C A91C A106U U148C | ≤ -4.2 |
| A41G G42A G48C C93A A106C U109C A137C | ≤ -4.2 |
| A41U A89U C93U G117U A147U | -2.89 |
| A41U G84A C96U A107C A147C | ≤ -4.2 |
| A41C C87A C95U A115C U151G | ≤ -4.2 |
| A41U G58A G74U C108A A120G G141A | ≤ -4.2 |
| A41U U55A C85A A150U | -2.65 |
| G42A A52G U61G G86A C114A | -3.88 |
| A41C G86U A89G G140A | ≤ -4.2 |
| A41U C63U U102C | -3.6 |
| A41C U53A C76U | -1.65 |
| A41C U148G | ≤ -4.2 |
| A41C U148C | -3.07 |
| A40U U55A C85A C116A | -0.563 |
| G42A G48U A52U C75A U90C | ≤ -4.2 |
| G42A A89G C93U C125U G141U | ≤ -4.2 |
| A41U G46U A52U | -4.03 |
| A41U U55C C63U G86A | -2.8 |
| G42A G88C | ≤ -4.2 |
| A41C C54A A91C U104G U127A G140U U151C | ≤ -4.2 |
| A41C G46A U90A A150G | ≤ -4.2 |
| A41C A47C C96U C103U A115G | -3.11 |

| Variant | polymerase ribozyme fitness (log ratio) |
| --- | --- |
| A41U U61A G68U A107C U145G | ≤ -4.2 |
| A40U G88C U101G | ≤ -4.2 |
| A41G U146G | -0.0573 |
| A41C C93G | -3.5 |
| A41C C99G | -0.603 |
| A41G U53G | -0.77 |
| A41G U44A U55A | -3.41 |
| A40U G68C C96U C105A | ≤ -4.2 |
| A41G A49U G59U C85A C105U A106G A121U U134C | ≤ -4.2 |
| A41C G67C G68A G88C G92A A107C | ≤ -4.2 |
| A41C G80C | -4.11 |
| G42A G59A G92A G100A C125A U146C | ≤ -4.2 |
| G42A G58A G100C | ≤ -4.2 |
| A41C U55A A97G | -0.161 |
| A41G G59A G81U C95A C114U | -1.27 |
| A41C C87G G100C G126A A142C | ≤ -4.2 |
| G42A G62C C116G C125U A142U A150C | ≤ -4.2 |
| A41C G94C | -1.8 |
| A41G G143U | -1.73 |
| A41C G59C U82C G86C C108G G141U | ≤ -4.2 |
| A41C A107C G133A U144G | ≤ -4.2 |
| A40U U61A C79A U104G | ≤ -4.2 |
| A41U G59A A73G A89U C93G A107G | ≤ -4.2 |
| A40U U55A U101C A120C | -0.406 |

| Variant | polymerase ribozyme fitness (log ratio) |
| --- | --- |
| A41C G50C U55A C85G | ≤ -4.2 |
| A41U C54G G65C G84U G141A C149A | ≤ -4.2 |
| A41C G88A G92A A115U U151G | ≤ -4.2 |
| A41C U53C G81C C114A A115U C123G | ≤ -4.2 |
| A41U G83U A150U | -1.02 |
| G42A U44G U56A G81C C85A G117U | ≤ -4.2 |
| A40U U45A C69U G83U G141A U144A | ≤ -4.2 |
| G42A G59C C125G | ≤ -4.2 |
| A41C C95G | -0.72 |
| A41C C95A | -0.7 |
| A41C C95U | -2.15 |
| A41C G152U | -2.69 |
| A41G C76A U77G G112A C116U A142C | ≤ -4.2 |
| A41C U61A G143C | -3.94 |
| A41C U127C | -2.04 |
| A41C A60G C75A A138U G141U U146C U148C | ≤ -4.2 |
| A41G G50C C85U C87A C103U C105G A115U | ≤ -4.2 |
| A41G C95U A122G C149A | ≤ -4.2 |
| G42A C54U G117A | ≤ -4.2 |
| A41C C51A U56A G58C U82C C87A G136U | ≤ -4.2 |
| A41U G50U A64U C118G A150C | ≤ -4.2 |
| A41U A52C | -2.05 |
| A41U A52U | -2.47 |
| A41U A49G A52C G84A C103G A115U | ≤ -4.2 |

| Variant | polymerase ribozyme fitness (log ratio) |
| --- | --- |
| A40U G68A C116A A137U | ≤ -4.2 |
| A41C G59C C75U G83C | -2.72 |
| A41U A49C | -3.83 |
| A41C A49C G81A A97C C103G G124U U134C | ≤ -4.2 |
| G42A U53A | ≤ -4.2 |
| A41U C93A | -3.19 |
| A41U G83C G126A | -2.3 |
| A41C U45G U53A G83C A91U C93U A115G U144A | ≤ -4.2 |
| A41U A52G U55A C69A G86U | -3.96 |
| A40U G92C U102C C103G A113G C132G U146C G152U | ≤ -4.2 |
| G42A G86A C103U A119C | ≤ -4.2 |
| G42A C75G C87A | ≤ -4.2 |
| A41U G74A C103U C114U U134C | ≤ -4.2 |
| G42A A49G A64G A107U C114U | ≤ -4.2 |
| A41C G80A C87A | ≤ -4.2 |
| A41C C105A | -2.1 |
| A41C A66U C87A A91U C103G A142U U145C | ≤ -4.2 |
| A41U G124A | -1.29 |
| A41U G124U | -0.896 |
| A41C U56G C76A C118G U134C | -3.21 |
| A41G C54G G117U G124C | -1.19 |
| A41G U104G C125G | -1.21 |
| G42A G88A C93G U145G C149A | ≤ -4.2 |
